Read-outs that look alike come from different tables or passages of the source.
T1: prolactin (PRL) (BBT Boster Immunoleader) (human, UniProt P01236 29-227)
T1 construct: also called human prolactin; GH-analogous protein
T1 sequence (looked up): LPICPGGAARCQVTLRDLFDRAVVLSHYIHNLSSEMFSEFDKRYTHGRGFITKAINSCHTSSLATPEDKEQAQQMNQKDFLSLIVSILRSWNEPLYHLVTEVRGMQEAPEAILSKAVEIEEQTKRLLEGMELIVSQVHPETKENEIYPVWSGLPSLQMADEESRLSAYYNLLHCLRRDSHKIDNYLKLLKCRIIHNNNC

B1: anti-GH mouse mAb 13H02 (antibody, mouse IgG2a, V domains shown)
VH: QGQMQQSGGELVNPGSSVKMSCKTSGFTFTSSEISWLKQKPGQSLEWIAWIYPGTGSSKFNQKFTGKAQLTAETSSSTAYMQLSSLTSEDSAIYYCARRGFFGGSFDYWGQGTTLTISS
VL: QIVLAQSPAIMSASLGERVTMTCTATSSVSSSYLHWYQQKPGSSPKLWIYSTSNLASGVPARFSGSGSGTSYSLTISSMEAEDAATYYCHQYHHSPPTFGAGTKLELK
notes: also called parent mouse antibody (13H02)
B2: recombinant anti-GH mouse-human chimeric mAb (Ch-13H02) (antibody, human IgG1, V domains shown)
VH: B1 VH
VL: B1 VL
notes: also called Ch-13H2; anti-GH chimeric antibody
B3: recombinant anti-GH humanized antibody (Hu-13H02) (antibody, human IgG1, V domains shown)
VH: QVQMVQSGAEVKKPGASVKVSCKASGFTFTSSEISWLRQAPGQRLEWIAWIYPGTGSSKFNQKFTGKATLTADTSASTAYMELSSLRSEDTAVYYCARRGFFGGSFDYWGQGTTVTVSS
VL: DIQLTQSPSFLSASVGDRVTITCTATSSVSSSYLHWYQQKPGKAPKLWIYSTSNLASGVPSRFSGSGSGTEFTLTISSLQPEDFATYYCHQYHHSPPTFGGGTKVEIK
notes: also called humanized 13H02
B4: anti-GH humanized antibody Fc mutant (Hu-13H02m) (antibody, human IgG1, kappa, V domains shown)
VH: B3 VH
VL: DIQLTQSPSFLSASVGDRVTITCTATSSVSSSYLHWYQQKPGKAPKLWIYSTSNLASGVPSRFSGSGSGTEFTLTISSLQPEDFATYYCHQYHHSPPTFGGGTKVEIKR
notes: also called Fc variant of Hu-13H02

What was measured:
[1] = molecular target: T2, recombinant human GH (Pharmaceutical and Medical Device Regulatory Science Society of Japan) (human, UniProt P01241 27-217); assay: cell-based or functional assay
[2] = molecular target: T2, recombinant human GH (Pharmaceutical …); assay: GH-GHR binding inhibition ELISA: biotin-labeled GH (5.5 ng/mL) on captured GHR-hFc, antibody varied
Protocol: The GH-GHR binding inhibitory activity was measured by calculating the inhibition rate of binding signal of biotin-labeled GH to GHR extracellular region protein-human Fc fusion (GHR-hFc) which was immobilized on an ELISA plate via anti-human Fcγ mouse antibody. The biotin-labeled GH was prepared by labeling recombinant GH with EZ-Link Micro NHS-PEG4-Biotinylation kit (Thermo Fisher Scientific Inc.). The specific method is as follows. Anti-human Fcγ mouse antibody (Jackson ImmunoResearch Laboratories, Inc.) diluted to 1 μg/mL PBS was immobilized at 50 μL/well on a 96-well half-area immunoplate, and the plate was blocked with PBS comprising 1% BSA. Next, GHR-hFc (R&D Systems, Inc.) diluted with assay buffer (PBS comprising 0.2% BSA and 0.05% Tween 20) to 0.1 μg/mL was added at 50 μL/well to be captured on the plate. The plate was washed with washing buffer (PBS comprising 0.05% Tween 20), followed by mixing the equivalent amount of biotin-labeled GH diluted with assay buffer to final concentration of 5.5 ng/mL and a sample (anti-GH mouse mAb-comprising sample) diluted with assay buffer, and adding the resultant mixture at 50 μL/well, and the plate was left still at room temperature for 2 hours. […] The reaction was stopped by adding an aqueous solution of 0.5 mol/L H₂SO₄, and then the absorbance at 450 nm was measured with a plate reader.

[3] = molecular target: T2, recombinant human GH (Pharmaceutical …); assay: SPR (BIACORE 8K+), antibody captured by anti-human IgG (Fc) on CM5 chip, GH as analyte
Protocol: (§1) The binding properties of the recombinant anti-GH humanized antibody (Hu-13H02) and the Fc mutant thereof (Hu-13H02m) prepared in Example 11, and the chimeric antibody (Ch-13H02) prepared in Example 8 to the human GH (Pharmaceutical and Medical Device Regulatory Science Society of Japan) and the monkey GH (Example 3) were measured with SPR using BIACORE 8K+ (GE Healthcare Inc.). The antibody samples (1 μg/mL) of the three antibodies (Hu-13H02, Hu-13H02m, and Ch-13H02) were captured by anti-human IgG (Fc) antibody immobilized on a CM5 sensor chip, respectively. Next, the human GH ranging from 0.13 to 8.0 nmol/L, or the monkey GH ranging from 0.50 to 32 nmol/L was added to calculate binding and dissociation parameters.

[4] = molecular target: recombinant cynomolgus monkey GH (cynomolgus monkey); assay: as above
Protocol: as §1

[5] = molecular target: T1, prolactin (PRL) (BBT Boster …); assay: competitive ELISA on immobilised human GH; IC50 (human GH)/IC50 (PRL) x 100
Protocol: (§2) IC₅₀ (nmol/L) for each of the anti-GH antibodies was determined by concentration-dependent curves of human GH and GH-analogous protein. The cross-reactivity to the GH-analogous protein was calculated by the following formula 3.

[6] = molecular target: T3, placental lactogen (PL) (Protein Laboratories Rehovot Ltd.) (human, UniProt P0DML2 27-217); assay: competitive ELISA on immobilised human GH; IC50 (human GH)/IC50 (PL) x 100
T3 construct: also called human placental lactogen; GH-analogous protein
Protocol: as §2

[7] = molecular target: T2, recombinant human GH (Pharmaceutical …); assay: cell-based or functional assay; remark: listed apart in the source
[8] = molecular target: T2, recombinant human GH (Pharmaceutical …); assay: cell-based or functional assay; remark: listed apart in the source
[9] = molecular target: recombinant cynomolgus monkey GH (cynomolgus monkey); assay: cell-based or functional assay

Sequence of recombinant cynomolgus monkey GH (cynomolgus monkey) (P33093 27-217): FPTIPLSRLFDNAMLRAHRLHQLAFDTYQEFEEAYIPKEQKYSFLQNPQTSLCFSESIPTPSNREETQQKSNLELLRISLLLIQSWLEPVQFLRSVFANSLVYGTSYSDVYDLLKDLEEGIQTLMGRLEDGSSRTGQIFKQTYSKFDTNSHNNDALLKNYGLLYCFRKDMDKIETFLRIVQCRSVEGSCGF
T2 sequence (P01241 27-217 limits assumed): as the sequence (P33093 27-217) above, with T105A, Y107D, D109N, S133P, N153D, I173V counted along it
T3 sequence (P0DML2 27-217 limits assumed): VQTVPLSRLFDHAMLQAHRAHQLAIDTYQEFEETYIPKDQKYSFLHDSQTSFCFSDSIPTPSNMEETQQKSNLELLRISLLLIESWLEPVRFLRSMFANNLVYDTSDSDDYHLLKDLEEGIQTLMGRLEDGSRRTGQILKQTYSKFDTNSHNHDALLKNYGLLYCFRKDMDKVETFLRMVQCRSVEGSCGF

Binder	GH-dependent Nb2 cell proliferation inhibitory activity (IC50) [1] [nM]	IC50 [2] [nM]	Kd [3] [nM]	koff [3] [s⁻¹]	kon [3] [M⁻¹ s⁻¹]	Kd [4] [nM]	koff [4] [s⁻¹]	kon [4] [M⁻¹ s⁻¹]	cross-reactivity [5] [%]	cross-reactivity [6] [%]	GH-dependent Nb2 cell proliferation inhibitory activity (IC50) [7] [nM]	Neutralizing activity in GH-dependent Nb2 cell proliferation inhibition assay (IC50) [8] [nM]	Neutralizing activity in GH-dependent Nb2 cell proliferation inhibition assay (IC50) [9] [nM]
B1	0.00336	0.0653											
B2			0.012	2.4e-05	1.9e+06	0.074	3.4e-05	450000	< 1	< 1	0.00627	0.00265	0.0136
B3						0.13	6.2e-05	470000	< 1	< 1			0.048
B4						0.13	6.9e-05	520000	< 1	< 1			0.0301

From patent publication US20240391996A1 (TAISHO PHARMACEUTICAL, published 2024)
